Test results from US20240159744A1, “COLON CANCER DIAGNOSIS OR DETECTION COMPOSITION FOR PREDICTING RESPONSE TO DRUG, AND COMPOSITION FOR PREVENTING OR TREATING COLON CANCER” (priority 2020, published 2024).

Test system: HCT-15 tumor-bearing mice
Assay: In-vivo and ex-vivo fluorescence imaging of EGF-Cy5.5, C-probe, EGF-probe
Protocol: The biodistribution of the EGF-probe intravenously administered to mice having HCT-15, HT29, Lovo or HCT-8 tumors was evaluated. First of all, 6-week-old Balb/c-nude mice (Nara-Biotec, Gyeonggi-do, Korea) were prepared and each cell was subcutaneously inoculated into the nude mice at the right flank at a concentration of 2×10^6 cells/mouse to generate tumors. […] At 24 hours after the administration of the EGF-probe, the mouse was imaged using an IVIS fluorescence imaging system. […] IVIS fluorescence imaging was conducted at 24 hours after the administration. Major organs and tumors were obtained and imaged with an IVIS imaging system. The fluorescence intensity of the organs and tumors was analyzed using the Living Image 2.50 software. […] The tumor tissue sections were counter-stained with DAPI and visualized with a confocal microscope.

B1: EGF-Cy5.5 (conjugate, UniProt P01133 23-1207, looked up)
Pro-epidermal growth factor: PQHWSCPEGTLAGNGNSTCVGPAPFLIFSHGNSIFRIDTEGTNYEQLVVDAGVSVIMDFHYNEKRIYWVDLERQLLQRVFLNGSRQERVCNIEKNVSGMAINWINEEVIWSNQQEGIITVTDMKGNNSHILLSALKYPANVAVDPVERFIFWSSEVAGSLYRADLDGVGVKALLETSEKITAVSLDVLDKRLFWIQYNREGSNSLICSCDYDGGSVHISKHPTQHNLFAMSLFGDRIFYSTWKMKTIWIANKHTGKDMVRINLHSSFVPLGELKVVHPLAQPKAEDDTWEPEQKLCKLRKGNCSSTVCGQDLQSHLCMCAEGYALSRDRKYCEDVNECAFWNHGCTLGCKNTPGSYYCTCPVGFVLLPDGKRCHQLVSCPRNVSECSHDCVLTSEGPLCFCPEGSVLERDGKTCSGCSSPDNGGCSQLCVPLSPVSWECDCFPGYDLQLDEKSCAASGPQPFLLFANSQDIRHMHFDGTDYGTLLSQQMGMVYALDHDPVENKIYFAHTALKWIERANMDGSQRERLIEEGVDVPEGLAVDWIGRRFYWTDRGKSLIGRSDLNGKRSKIITKENISQPRGIAVHPMAKRLFWTDTGINPRIESSSLQGLGRLVIASSDLIWPSGITIDFLTDKLYWCDAKQSVIEMANLDGSKRRRLTQNDVGHPFAVAVFEDYVWFSDWAMPSVMRVNKRTGKDRVRLQGSMLKPSSLVVVHPLAKPGADPCLYQNGGCEHICKKRLGTAWCSCREGFMKASDGKTCLALDGHQLLAGGEVDLKNQVTPLDILSKTRVSEDNITESQHMLVAEIMVSDQDDCAPVGCSMYARCISEGEDATCQCLKGFAGDGKLCSDIDECEMGVPVCPPASSKCINTEGGYVCRCSEGYQGDGIHCLDIDECQLGEHSCGENASCTNTEGGYTCMCAGRLSEPGLICPDSTPPPHLREDDHHYSVRNSDSECPLSHDGYCLHDGVCMYIEALDKYACNCVVGYIGERCQYRDLKWWELRHAGHGQQQKVIVVAVCVVVLVMLLLLSLWGAHYYRTQKLLSKNPKNPYEESSRDVRSRRPADTEDGMSSCPQPWFVVIKEHQDLKNGGQPVAGEDGQAADGSMQPTSWRQEPQLCGMGTEQGCWIPVSSDKGSCPQVMERSFHMPSYGTQTLEGGVEKPHSLLSANPLWQQRALDPPHQMELTQ
modifications: Pro-epidermal growth factor Cy5.5 dye label
in-vivo fluorescence imaging (tumor and background signals) (5 mg/kg intravenous, 24 hours, IVIS): strong fluorescence signal at the tumor site but nonspecific background signals were observed throughout the body | fluorescence of tumor tissue sections (cryosections, confocal): observed clearly
